Data taken from patent publication CN114989293A (UNIV CHONGQING MEDICAL; FENG YULIN, dated 2022).

B1: 单抗19-CQTS086 (antibody, V domains shown)
VH: EVQLVESGGGLVQPGGSLRLSCAASGITVNSNYMSWVRQAPGKGLEWVSVIYNGVTTYYADSVKGRFTISRDISKNTVYLQMNSLRAEDTAVYYCARAGWLRGRFDPWGQGTLVIVSS
VL: SYVLTQPPSVSVAPGQTASITCGGSNIGSKNVHWYQQKSGQAPVLVVYDDSDRPSGIPERFSGSNSGNTATLIINRVEAGDEADYYCQVWDSTTDLPHWVFGGGTKLTVL
B2: 单抗15-CQTS080 (antibody, V domains shown)
VH: QVTLRESGPALVRPTQTLTLTCTFAGFSLRTHGMCVSWIRQPPGKALEWLARIDWDGDKYYSTSLKTRLTISKDTSKDQVVLTMTNMDPVDTATYYCARFLVGGFKAWFDPWGQGTLVTVSS
VL: QSVLTQPPSVSAAPGQKVTISCSGSSSNIGNNYVSWYQQLPGIAPELLIYDNNKRPSGIPGRFSGSRSGTSATLDITGLQTGDEADYYCGTWDTSLNVWVFGGGTKLTVL
B3: 单抗13-CQTS078 (antibody, V domains shown)
VH: QVQLVQSGAEVKKPGASVRVSCKASGDTFSSHYIHWVRQAPGQGLEWMGIINPSGGSTSYAQKFQGRVTMTSDTSTSTVYLELSSLRSEDTAVYYCARDQAFIVATLGPDYWGQGILVTVSS
VL: QTVVTQEPSFSVSPGGTVTLTCGLSSGSVSTSYYASWYQQTPGQAPRTLIYSTNTRSSGVPDRFSGSILGNKAALTITGAQADDESDYYCVLYMGSGIWVFGGGTKLTVL
B4: 单抗14-CQTS079 (antibody, V domains shown)
VH: EVQLVESGGGLIQPGGSLRLSCAASGFTVSSNYMSWVRQAPGKGLEWVSVIYSGDNTYYADSVKGRFTISRDNSKNTLYLQMNSLRAEDTAVYYCAKMLWLRGWFDPWGQGTLVTVSS
VL: NFMLTQPHSVSESPGKTVTISCTRSSGSIASNYVQWYQQRPGSAPTTVIYEDNQRPSGVPDRFSGSIDSSSDSASLTISGLKTEDEADYYCQSYDTSNHWVFGGGTKLTVL
B5: 单抗17-CQTS082 (antibody, V domains shown)
VH: EVQLVQSGAEVKKPGESLKISCKGSGYSFSTYWIGWVRQMPGKGLEWMGIIYPYDSDTRYSPSFQGQVTISADKSISTAYLQWSSLKASDTAIYYCARQESGWSFDYWGQGTLVTVSS
VL: DIQMTQSPSSLSASVGDRVTITCRASQNINKYLNWYQQKPGKAPKLLIYVASSLQSGVPSRFSGSGSGTDFTLTISSLQPEDFATYYCQQSYSTPRTFGQGTKVEIK
B6: 单抗18-CQTS083 (antibody, V domains shown)
VH: EVQLVESGGGLVQPGGSLRLSCAASGLTVSSNYMSWVRQAPGKGLEWVSLIYSGGSTYYADSVKGRFTISRHNSKNTLYLQMNSLRAEDTAVYYCARDLEERGAMDVWGQGTTVTVSS
VL: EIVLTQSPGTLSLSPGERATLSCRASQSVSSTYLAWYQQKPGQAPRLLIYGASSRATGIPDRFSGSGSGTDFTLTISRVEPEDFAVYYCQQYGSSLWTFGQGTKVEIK
B7: 单抗12-CQTS077 (antibody, V domains shown)
VH: EVQLVESGGGVVQPGGSLRLSCAASGFTFDDYAMNWVRQAPGKGLEWVSLISGDGDSPSYSGSVKGRFTISRDNSKNSLYLQMISLRTEDTALYYCARESPKLTGYFDYWGQGTLVTVSS
VL: SYVLTQPPSVSVAPGQTAGITCGGDDIGSKNVHWYQQKPGQAPVLVVYDDHDRPSGIPERFSGSNSGNTATLTISRVEAGDEADYYCQVWDSSSDPYVFGTGTKVTVL

The binders below were run against 新冠病毒(SARS-CoV-2) S蛋白受体结合域 RBD (SARS-CoV-2, UniProt P0DTC2 319-541) (assay: ELISA, antigen coated at 2 μg/mL, 293T supernatant, anti-human IgG-ALP detection).

Binder | binding result
B1 | binds
B2 | binds
B3 | binds
B4 | binds
B5 | binds
B6 | binds
B7 | binds
